{"source": "patent EP4733393A1", "about": "(Todo, Tomoki, dated 2026)", "binders": {"B1": {"name": "anti-human CTLA4 antibody (derived from ipilimumab), expressed from the Ipi/SV-01 plasmid (antibody, human IgG1, kappa, V domains shown)", "VH": "QVQLVESGGGVVQPGRSLRLSCAASGFTFSSYTMHWVRQAPGKGLEWVTSISYDGNNKYYADSVKGRFTISRDNSKNTLYLQMNSLRAEDTAIYYCARTGWLGPFDYWGQGTLVTVSS", "VL": "not shown", "notes": "also called antibody encoded by T-Ipi"}, "B2": {"name": "anti-human CTLA4 antibody (derived from ticilimumab), expressed from the Tic/SV-01 plasmid (antibody, human IgG2, kappa, V domains shown)", "VH": "QVQLVESGGGVVQPGRSLRLSCAASGFTFSSYGMHWVRQAPGKGLEWVAVIWYDGSNKYYADSVKGRFTISRDNSKNTLYLQMNSLRAEDTAVYYCARDPRGATLYYYYYGMDVWGQGTTVTVSS", "VL": "DIQMTQSPSSLSASVGDRVTITCRASQSINSYLDWYQQKPGKAPKLLIYAASSLQSGVPSRFSGSGSGTDFTLTISSLQPEDFATYYCQQYYSTPFTFGPGTKVEIKR", "notes": "also called antibody encoded by T-Tic; derived from ticilimumab (tremelimumab)"}, "B3": {"name": "anti-mouse PD-1 antibody (derived from J43) with human IgG4 heavy chain constant region and human λ light chain constant region, expressed from the J43/SV-01 … (antibody, V domains shown)", "VH": "EVRLLESGGGLVKPEGSLKLSCVASGFTFSDYFMSWVRQAPGKGLEWVAHIYTKSYNYATYYSGSVKGRFTISRDDSRSMVYLQMNNLRTEDTATYYCTRDGSGYPSLDFWGQGTQVTVSS", "VL": "YELTQPPSASVVGETVKITCSGDQLPKYFADWFHQRSDQTILQVIYDDNKRPSGIPERISGSSSGTTATLTIRDVRAEDEGDYYCFSGYVDSDSKLYVFGSGTQLTVLG", "notes": "also called antibody encoded by T-J43"}}, "key": {"human CTLA-4 [1]": {"target": "T1, human CTLA-4 (human, UniProt P16410 36-161)", "T1 sequence (looked up)": "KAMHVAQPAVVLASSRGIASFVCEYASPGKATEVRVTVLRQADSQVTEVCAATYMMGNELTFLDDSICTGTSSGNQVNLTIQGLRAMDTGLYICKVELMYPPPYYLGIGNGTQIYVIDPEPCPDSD", "experiment": "AlphaLISA Human CTLA-4/CD80 Binding Kit, inhibition of human CTLA-4/CD80 (B7-1) binding; concentration as human Fc (Fig. 7-3-1 B)"}, "human CTLA-4 [2]": {"target": "T1, human CTLA-4", "experiment": "AlphaLISA Human CTLA-4/CD80 Binding Kit, inhibition of human CTLA-4/CD80 (B7-1) binding; concentration as human Fc (Fig. 7-3-2 B)"}, "mouse PD-1": {"target": "T2, mouse PD-1 (mouse, UniProt Q02242 25-167)", "T2 sequence (looked up)": "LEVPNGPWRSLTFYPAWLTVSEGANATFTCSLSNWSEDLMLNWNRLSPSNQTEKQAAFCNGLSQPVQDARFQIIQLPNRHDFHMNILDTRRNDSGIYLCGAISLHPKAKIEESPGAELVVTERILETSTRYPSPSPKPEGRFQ", "experiment": "AlphaLISA Mouse PD-1 and PD-L1 Binding Kit, inhibition of mouse PD-1/PD-L1 binding; concentration as human Fc (Fig. 1-3-1 B)"}}}
{"binder": "B1", "values": [{"measurement": "IC50", "setting": "human CTLA-4 [1]", "result": 8.24, "unit": "ng/mL"}]}
{"binder": "B2", "values": [{"measurement": "IC50", "setting": "human CTLA-4 [2]", "result": 25.4, "unit": "ng/mL"}]}
{"binder": "B3", "values": [{"measurement": "IC50", "setting": "mouse PD-1", "result": 6.81, "unit": "ng/mL"}]}
